Measured values reported in patent US20250179195A1 (LES LABORATOIRES SERVIER, published 2025).
Numbering of substitutions follows the chain as printed. Names may count otherwise.

B1: anti-FLT3 antibody 17679 (antibody, human IgG1, kappa, L234A L235A, V domains shown)
VH: QVQLQESGPGLVKPSQTLSLTCTVSGGSISSGGYYWSWIRQHPGKGLEWIGYIYYSGRTNYNPSLKSRVTISEDTSKNQFSLKVSSVTAADTAVYYCARDQDGSGWYFDYWGQGALVTVSS
VL: EIVLTQSPATLSLSPGERATLSCRASQSVSSYLAWYQQKPGQAPRLLIYDASNRATGIPARFSGSGSGTDFTLTIRSLEPEDFAVYYCQQRSNWWTFGQGTKVEIKR
notes: Human IgG1-LALA / kappa
B2: anti-FLT3 antibody 17526 (antibody, human IgG1, kappa, L234A L235A, V domains shown)
VH: QVTLKESGPVLVKPTETLTLTCTISGFSLGNARMGVSWIRQPPGKALEWLAHIFSNDEKSYSTSLKSRLTISKDTSKSQVVLTMTNMDPVDTATYYCARIVGYVDWLLPFDYWGQGTLVTVSS
VL: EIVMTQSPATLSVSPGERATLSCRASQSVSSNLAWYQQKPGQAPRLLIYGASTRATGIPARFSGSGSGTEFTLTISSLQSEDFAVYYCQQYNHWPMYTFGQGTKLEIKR
notes: Human IgG1-LALA / kappa
B3: anti-FLT3 antibody 17667 (antibody, human IgG1, kappa, L234A L235A, V domains shown)
VH: B2 VH with I24V, G30S, K59R, T63P, D74G
VL: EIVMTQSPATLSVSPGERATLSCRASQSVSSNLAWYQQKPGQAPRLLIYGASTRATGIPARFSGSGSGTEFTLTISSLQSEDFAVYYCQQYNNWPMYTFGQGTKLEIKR
notes: Human IgG1-LALA / kappa
B4: anti-FLT3 antibody 17566 (antibody, human IgG1, kappa, L234A L235A, V domains shown)
VH: QVTLKESGPVLVKPTETLTLTCTVSGFSFNNARMGVNWIRQPPGKALEWLAHIFSNDEKSYSTSLKSRLTISKDISKSQVVLTMTNMDPVDTATYYCARIVGYGSGWRLLGDYWGQGTLVTVSS
VL: AIQMTQSPSSLSASVGDRVTITCRASQGITNDLGWYQQKPGKAPKLLIYAASSLQSGVPSRFSGSGSGTDFTLTISSLQPEDFATYYCLQDYNYPWTFGQGTKVEIKR
notes: Human IgG1-LALA (L234A/L235A) / kappa, germline-corrected variable domains
B5: anti-FLT3 antibody 17497 (antibody, human IgG1, kappa, L234A L235A, V domains shown)
VH: QVQLQESGPGLVKPSGTLSLTCAVSGGSISSTNWWSWVRQPPGKGLEWIGEISHRGSTNYNPSLKSRVTISVDKSKNQFSLKLSSVTAADTAVYYCARDPEMTLYYYYGMDVWGQGTTVTVSS
VL: B4 VL with A1D, Q27R, T30R, L46R, D70E, D91H, Y92N, N93S, W96L, Q100G
notes: Human IgG1-LALA / kappa
B6: anti-FLT3 antibody 17543 (antibody, human IgG1, kappa, L234A L235A, V domains shown)
VH: QVTLKESGPVLVKPTETLTLTCTVSGFSLINARMGVTWIRQPPGKALEWLAHIFSNDEKSYSTSLKSRLTISKDTSKSQVVLTMTNMDPVDTATYYCARIPGYSRGWDYYYYGMDVWGQGTMVTVSS
VL: B4 VL with A1D, T30R, L46R, S53T, D70E, D91H, Y92N, N93S
notes: Human IgG1-LALA / kappa

These binders were tested against T1, cynomolgus FLT3 expressed on CHO-S cells (cynomolgus, UniProt A0A2K5VQ48 27-993) (assay: flow cytometry (iQue Screener PLUS) on CHO-S cells transiently expressing cynomolgus FLT3; AF647 anti-human IgG (H+L) secondary; GeoMean RL1-H; 12-point titration).
T1 construct: whole, on cells
Description: (§1) The anti-FLT3 antibodies were incubated with the hamster CHO-S cell line transiently expressing human, cynomolgus or mouse FLT3 for 30 minutes at 4° C. The cells were washed twice and subsequently incubated for an additional 20 minutes with AF647-conjugated secondary anti-human IgG (H+L) antibody. After the washing step, antibody binding was detected using the high-throughput flow cytometer iQue Screener PLUS (Sartorius) measuring the GeoMean of AF647 signal in each well. Every concentration was assayed in triplicate and a 12-point titration curve was generated for each antibody.
With B1 the “EC50 (read off the curve)” value was ~0.04 µg/mL.
With B2 the “EC50 (read off the curve)” value was ~0.02 µg/mL.
With B3 the “EC50 (read off the curve)” value was ~0.02 µg/mL.
In the case of B4, the “EC50 (read off the curve)” value is reported as ~0.03 µg/mL.
B5 was tested, and the “EC50 (read off the curve)” value was ~0.01 µg/mL.
For B6, the “EC50 (read off the curve)” value was ~0.04 µg/mL.

These binders were tested against T2, recombinant human FLT3 ECD his-tagged fusion receptor (Sino Biological) (human, UniProt P36888 27-543) (assay: bio-layer interferometry (Octet QK384); FLT3-his immobilized on anti-penta-HIS (HIS1K) biosensor; 500 nM antibody, 600 s association).
T2 construct: Bought protein; also called FLT3-his; His-tagged FLT3; not shown: His tag
B1: binds.
B2: binds.
B3: binds.
B4: binds.
B5: binds.

The binders below were run against T3, mouse FLT3 expressed on CHO-S cells (mouse, UniProt Q00342 28-1000) (assay: flow cytometry (iQue Screener PLUS) on CHO-S cells transiently expressing mouse FLT3; AF647 anti-human IgG (H+L) secondary; GeoMean RL1-H; 12-point titration).
T3 construct: whole, on cells
T3 sequence (Q00342 28-1000): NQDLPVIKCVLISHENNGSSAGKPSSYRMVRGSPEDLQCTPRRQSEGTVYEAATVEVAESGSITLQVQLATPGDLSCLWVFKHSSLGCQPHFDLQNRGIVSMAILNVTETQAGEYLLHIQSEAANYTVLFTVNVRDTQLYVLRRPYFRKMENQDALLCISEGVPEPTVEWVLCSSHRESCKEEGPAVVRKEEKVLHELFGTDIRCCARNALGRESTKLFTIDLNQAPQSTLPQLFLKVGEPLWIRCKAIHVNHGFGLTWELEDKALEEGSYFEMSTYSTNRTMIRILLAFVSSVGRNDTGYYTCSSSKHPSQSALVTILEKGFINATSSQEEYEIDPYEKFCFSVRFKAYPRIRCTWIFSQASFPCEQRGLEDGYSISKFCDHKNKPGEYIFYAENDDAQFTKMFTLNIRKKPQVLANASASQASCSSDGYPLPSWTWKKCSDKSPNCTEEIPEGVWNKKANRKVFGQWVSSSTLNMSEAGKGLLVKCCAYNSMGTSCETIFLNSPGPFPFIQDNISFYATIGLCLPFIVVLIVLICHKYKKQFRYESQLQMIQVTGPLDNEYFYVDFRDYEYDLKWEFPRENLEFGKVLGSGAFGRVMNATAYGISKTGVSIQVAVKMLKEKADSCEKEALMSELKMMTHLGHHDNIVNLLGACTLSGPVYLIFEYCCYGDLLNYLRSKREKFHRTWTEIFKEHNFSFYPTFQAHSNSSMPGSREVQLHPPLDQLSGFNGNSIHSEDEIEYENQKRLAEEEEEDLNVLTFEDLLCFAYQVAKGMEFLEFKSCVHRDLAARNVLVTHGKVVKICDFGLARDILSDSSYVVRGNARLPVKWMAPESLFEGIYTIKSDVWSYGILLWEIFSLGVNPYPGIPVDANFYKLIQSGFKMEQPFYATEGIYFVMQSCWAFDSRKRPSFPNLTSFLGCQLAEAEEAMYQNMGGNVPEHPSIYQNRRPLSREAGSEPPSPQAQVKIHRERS
Description: as §1
B5 was tested, and the “EC50 (read off the curve)” value was ~0.01 µg/mL.

The binders below were run against T4, human FLT3 expressed on cells (human, UniProt P36888 27-993) (assay: flow cytometry (iQue Screener PLUS) on CHO-S cells transiently expressing human FLT3; AF647 anti-human IgG (H+L) secondary; GeoMean RL1-H; 12-point titration).
T4 construct: endogenous on EOL-1 cells and primary CD34+ stem cells in the functional rows; also called CD135
Description: as §1
B1: binds.
B2: binds.
B3: binds.
B4: binds.
B5: binds.
For B6, the “EC50 (read off the curve)” value was ~0.03 µg/mL.

Each binder was assayed against T3, mouse FLT3 expressed on CHO-S cells (assay: flow cytometry (iQue Screener PLUS) on CHO-S cells transiently expressing mouse FLT3; AF647 anti-human IgG (H+L) secondary; GeoMean RL1-H).
Description: as §1
B1: no binding.
B2: no binding.
B3: no binding.
B4: no binding.
B6: no binding.
